This passage reports ELISA data results from patent US20200377590A1 (Hoffmann-La Roche, published 2020).

T1: CD81 (UniProt P60033 1-236, limits assumed)
T1 construct: whole, on cells; also called CD81 receptor
T1 sequence (looked up): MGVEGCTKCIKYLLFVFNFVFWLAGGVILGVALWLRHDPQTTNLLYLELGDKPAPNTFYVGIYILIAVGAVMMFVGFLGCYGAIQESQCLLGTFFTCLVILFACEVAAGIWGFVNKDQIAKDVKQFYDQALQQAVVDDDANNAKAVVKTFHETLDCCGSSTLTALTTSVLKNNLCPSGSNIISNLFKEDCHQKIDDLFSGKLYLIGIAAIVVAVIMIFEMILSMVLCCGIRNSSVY

B1: CD81K04 HC GG-05-hVH_1_18 / LC JA_GG-08-hVK_4_1 (antibody, V domains shown)
VH: QVQLVQSGAEVKKPGASVKVSCKASGYTFSSSWMNWVRQAPGQGLEWMGRIYSGDGDAIYAQKLQGRVTMTTDTSTSTAYMELRSLRSDDTAVYYCAREGKTGDLLLRSWGQGTLVTVSS
VL: DIVMTQSPDSLAVSLGERATINCKSSKSVSTSIYSYMHWYQQKPGQPPKLLIKYASYLESGVPDRFSGSGSGTDFTLTISSLQAEDVAVYYCEHSREFPFTFGQGTKLEIK
notes: human constant region
B2: CD81K04 HC JA_GG-14-hVH_1_3 / LC GG-03-hVK_4_1 (antibody, V domains shown)
VH: QVQLVQSGAEVKKPGASVKVSCKASGYTFSSSWMNWVRQAPGQGLEWMGRIYSGDGDAIYNGKFKGRATITADTSASTAYMELSSLRSEDTAVYYCAREGKTGDLLLRSWGQGTLVTVSS
VL: DIVMTQSPDSLAVSLGERATINCKSSKSVSTSIYSYLAWYQQKPGQPPKLLIYYASYRESGVPDRFSGSGSGTDFTLTISSLQAEDVAVYYCQHSREFPFTFGQGTKLEIK
notes: human constant region
B3: CD81K04 HC JA_GG-14-hVH_1_3 / LC JA_GG-09-hVK_4_1 (antibody, V domains shown)
VH: QVQLVQSGAEVKKPGASVKVSCKASGYTFSSSWMNWVRQAPGQGLEWMGRIYSGDGDAIYNGKFKGRATITADTSASTAYMELSSLRSEDTAVYYCAREGKTGDLLLRSWGQGTLVTVSS
VL: DIVMTQSPDSLAVSLGERATINCKSSKSVSTSIYSYMHWYQQKPGQPPKLLIKYASTRESGVPDRFSGSGSGTDFTLTISSLQAEDVAVYYCEHSREFPFTFGQGTKLEIK
notes: human constant region
B4: CD81K04 HC JA_GG-13-hVH_1_69 / LC GG-02-hVK_4_1 (antibody, V domains shown)
VH: QVQLVQSGAEVKKPGSSVKVSCKASGGTFSSSWMNWVRQAPGQGLEWMGRIYSGDGDAIYAQKFQGRVTITADESTSTAYMELSSLRSEDTAVYYCAREGKTGDLLLRSWGQGTLVTVSS
VL: DIVMTQSPDSLAVSLGERATINCKSSKSVSTSIYSYMHWYQQKPGQPPKLLIYYASYRESGVPDRFSGSGSGTDFTLTISSLQAEDVAVYYCQHSREFPFTFGQGTKLEIK
notes: human constant region
B5: CD81K04 HC JA_GG-14-hVH_1_3 / LC GG-02-hVK_4_1 (antibody, V domains shown)
VH: QVQLVQSGAEVKKPGASVKVSCKASGYTFSSSWMNWVRQAPGQGLEWMGRIYSGDGDAIYNGKFKGRATITADTSASTAYMELSSLRSEDTAVYYCAREGKTGDLLLRSWGQGTLVTVSS
VL: DIVMTQSPDSLAVSLGERATINCKSSKSVSTSIYSYMHWYQQKPGQPPKLLIYYASYRESGVPDRFSGSGSGTDFTLTISSLQAEDVAVYYCQHSREFPFTFGQGTKLEIK
notes: human constant region
B6: CD81K04 HC JA_GG-14-hVH_1_3 / LC GG-04-hVK_4_1 (antibody, V domains shown)
VH: QVQLVQSGAEVKKPGASVKVSCKASGYTFSSSWMNWVRQAPGQGLEWMGRIYSGDGDAIYNGKFKGRATITADTSASTAYMELSSLRSEDTAVYYCAREGKTGDLLLRSWGQGTLVTVSS
VL: DIVMTQSPDSLAVSLGERATINCKSSKSVSTSIYSYLAWYQQKPGQPPKLLIYYASTRESGVPDRFSGSGSGTDFTLTISSLQAEDVAVYYCQHSREFPYTFGQGTKLEIK
notes: human constant region
B7: CD81K04 HC JA_GG-14-hVH_1_69 / LC GG-02-hVK_4_1 (antibody, V domains shown)
VH: QVQLVQSGAEVKKPGSSVKVSCKASGYTFSSSWMNWVRQAPGQGLEWMGRIYSGDGDAIYNGKFKGKATITADESTSTAYMELSSLRSEDTAVYYCAREGKTGDLLLRSWGQGTLVTVSS
VL: DIVMTQSPDSLAVSLGERATINCKSSKSVSTSIYSYMHWYQQKPGQPPKLLIYYASYRESGVPDRFSGSGSGTDFTLTISSLQAEDVAVYYCQHSREFPFTFGQGTKLEIK
notes: human constant region
B8: CD81K04 HC JA_GG-13-hVH_1_69 / LC JA_GG-09-hVK_4_1 (antibody, V domains shown)
VH: QVQLVQSGAEVKKPGSSVKVSCKASGGTFSSSWMNWVRQAPGQGLEWMGRIYSGDGDAIYAQKFQGRVTITADESTSTAYMELSSLRSEDTAVYYCAREGKTGDLLLRSWGQGTLVTVSS
VL: DIVMTQSPDSLAVSLGERATINCKSSKSVSTSIYSYMHWYQQKPGQPPKLLIKYASTRESGVPDRFSGSGSGTDFTLTISSLQAEDVAVYYCEHSREFPFTFGQGTKLEIK
notes: human constant region
B9: CD81K04 HC JA_GG-14-hVH_1_3 / LC JA_GG-10-hVK_4_1 (antibody, V domains shown)
VH: QVQLVQSGAEVKKPGASVKVSCKASGYTFSSSWMNWVRQAPGQGLEWMGRIYSGDGDAIYNGKFKGRATITADTSASTAYMELSSLRSEDTAVYYCAREGKTGDLLLRSWGQGTLVTVSS
VL: DIVMTQSPDSLAVSLGERATINCRASKSVSTSIYSYMHWYQQKPGQPPKLLIKYASYLESGVPDRFSGSGSGTDFTLTISSLQAEDVAVYYCEHSREFPFTFGQGTKLEIK
notes: human constant region
B10: CD81K04 HC JA_GG-13-hVH_1_69 / LC GG-03-hVK_4_1 (antibody, V domains shown)
VH: QVQLVQSGAEVKKPGSSVKVSCKASGGTFSSSWMNWVRQAPGQGLEWMGRIYSGDGDAIYAQKFQGRVTITADESTSTAYMELSSLRSEDTAVYYCAREGKTGDLLLRSWGQGTLVTVSS
VL: DIVMTQSPDSLAVSLGERATINCKSSKSVSTSIYSYLAWYQQKPGQPPKLLIYYASYRESGVPDRFSGSGSGTDFTLTISSLQAEDVAVYYCQHSREFPFTFGQGTKLEIK
notes: human constant region
B11: CD81K04 HC GG-05-hVH_1_18 / LC JA_GG-09-hVK_4_1 (antibody, V domains shown)
VH: QVQLVQSGAEVKKPGASVKVSCKASGYTFSSSWMNWVRQAPGQGLEWMGRIYSGDGDAIYAQKLQGRVTMTTDTSTSTAYMELRSLRSDDTAVYYCAREGKTGDLLLRSWGQGTLVTVSS
VL: DIVMTQSPDSLAVSLGERATINCKSSKSVSTSIYSYMHWYQQKPGQPPKLLIKYASTRESGVPDRFSGSGSGTDFTLTISSLQAEDVAVYYCEHSREFPFTFGQGTKLEIK
notes: human constant region
B12: CD81K04 HC JA_GG-13-hVH_1_69 / LC JA_GG-08-hVK_4_1 (antibody, V domains shown)
VH: QVQLVQSGAEVKKPGSSVKVSCKASGGTFSSSWMNWVRQAPGQGLEWMGRIYSGDGDAIYAQKFQGRVTITADESTSTAYMELSSLRSEDTAVYYCAREGKTGDLLLRSWGQGTLVTVSS
VL: DIVMTQSPDSLAVSLGERATINCKSSKSVSTSIYSYMHWYQQKPGQPPKLLIKYASYLESGVPDRFSGSGSGTDFTLTISSLQAEDVAVYYCEHSREFPFTFGQGTKLEIK
notes: human constant region
B13: CD81K04 HC JA_GG-14-hVH_1_3 / LC JA_GG-08-hVK_4_1 (antibody, V domains shown)
VH: QVQLVQSGAEVKKPGASVKVSCKASGYTFSSSWMNWVRQAPGQGLEWMGRIYSGDGDAIYNGKFKGRATITADTSASTAYMELSSLRSEDTAVYYCAREGKTGDLLLRSWGQGTLVTVSS
VL: DIVMTQSPDSLAVSLGERATINCKSSKSVSTSIYSYMHWYQQKPGQPPKLLIKYASYLESGVPDRFSGSGSGTDFTLTISSLQAEDVAVYYCEHSREFPFTFGQGTKLEIK
notes: human constant region
B14: CD81K04 HC JA_GG-13-hVH_1_69 / LC GG-04-hVK_4_1 (antibody, V domains shown)
VH: QVQLVQSGAEVKKPGSSVKVSCKASGGTFSSSWMNWVRQAPGQGLEWMGRIYSGDGDAIYAQKFQGRVTITADESTSTAYMELSSLRSEDTAVYYCAREGKTGDLLLRSWGQGTLVTVSS
VL: DIVMTQSPDSLAVSLGERATINCKSSKSVSTSIYSYLAWYQQKPGQPPKLLIYYASTRESGVPDRFSGSGSGTDFTLTISSLQAEDVAVYYCQHSREFPYTFGQGTKLEIK
notes: human constant region
B15: CD81K04 HC JA_GG-13-hVH_1_69 / LC JA_GG-10-hVK_4_1 (antibody, V domains shown)
VH: QVQLVQSGAEVKKPGSSVKVSCKASGGTFSSSWMNWVRQAPGQGLEWMGRIYSGDGDAIYAQKFQGRVTITADESTSTAYMELSSLRSEDTAVYYCAREGKTGDLLLRSWGQGTLVTVSS
VL: DIVMTQSPDSLAVSLGERATINCRASKSVSTSIYSYMHWYQQKPGQPPKLLIKYASYLESGVPDRFSGSGSGTDFTLTISSLQAEDVAVYYCEHSREFPFTFGQGTKLEIK
notes: human constant region

In this experiment the target is T1, CD81. The experiment is described as follows: cell ELISA.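 Further: antibody binding to HuH7 cells expressing CD81 versus a CD81-negative HuH7 control line, bound antibody detected by secondary reagent, absorbance at 450 nm with 620 nm reference.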 A general note: An ELISA detects its analyte on a solid surface through an enzyme-linked reagent.
B1 had an ELISA data of 0.881.

In the case of B2, the ELISA data was 0.518.

As to B3, the ELISA data came out at 0.975.

Consider B4, for which the ELISA data came out at 0.172.

On to B5, for which the ELISA data is 0.575.

B6 yielded an ELISA data of 0.177.

Molecule B7 displayed an ELISA data of 0.235.

In turn, B8 yielded an ELISA data of 0.776.

For the molecule B9, the ELISA data is 0.882.

In the case of B10, the ELISA data amounted to 0.115.

With B11, the ELISA data turned out to be 0.889.

In turn, B12 had an ELISA data of 0.743.

For B13, the ELISA data was 0.953.

B14 gave an ELISA data of 0.073.

On to B15, for which the ELISA data turned out to be 0.613.
